# Data as given in patent US20240209106A1 (BEIGENE SWITZERLAND, published 2024).
# Residue numbers refer to the chain shown, from its start. Numbers in names are those of the source. Read-outs that look alike come from different tables or passages of the source.
# T1: human CEA on cells (human, UniProt P06731 35-685)
# T1 construct: whole, on cells; also called CT26/CEA; MKN45
# T1 sequence (looked up): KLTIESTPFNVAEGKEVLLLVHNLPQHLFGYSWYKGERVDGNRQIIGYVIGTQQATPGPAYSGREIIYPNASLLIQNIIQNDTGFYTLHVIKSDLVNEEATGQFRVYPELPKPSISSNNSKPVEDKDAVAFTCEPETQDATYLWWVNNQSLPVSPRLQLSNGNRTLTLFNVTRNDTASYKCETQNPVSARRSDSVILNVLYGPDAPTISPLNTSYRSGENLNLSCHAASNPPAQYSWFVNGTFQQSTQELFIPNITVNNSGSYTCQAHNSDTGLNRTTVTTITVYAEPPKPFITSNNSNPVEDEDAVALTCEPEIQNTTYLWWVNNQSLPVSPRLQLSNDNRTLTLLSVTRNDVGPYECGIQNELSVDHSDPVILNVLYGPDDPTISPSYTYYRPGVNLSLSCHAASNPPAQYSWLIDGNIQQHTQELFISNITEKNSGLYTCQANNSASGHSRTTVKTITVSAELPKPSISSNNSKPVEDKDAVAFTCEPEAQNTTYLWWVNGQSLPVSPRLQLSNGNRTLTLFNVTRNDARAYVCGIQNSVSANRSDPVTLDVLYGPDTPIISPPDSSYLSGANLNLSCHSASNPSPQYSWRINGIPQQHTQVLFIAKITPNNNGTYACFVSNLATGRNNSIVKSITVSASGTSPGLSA
# B1: A-CD137×CEA (bispecific antibody, human IgG1, kappa)
# heavy: QVQLVQSGAEVKKPGASVKVSCKASGYIFTSYYLHWVRQAPGQGLEWIGYINPQTGKTSYAQKFQGRVTMTRDTSTSTVYMELSSLRSEDTAVYYCAREYGNYNYPLDYWGQGTLVTVSSASTKGPSVFPLAPSSKSTSGGTAALGCLVKDYFPEPVTVSWNSGALTSGVHTFPAVLQSSGLYSLSSVVTVPSSSLGTQTYICNVNHKPSNTKVDKKVEPKSCDKTHTCPPCPAPPAAGPSVFLFPPKPKDTLMISRTPEVTCVVVDVSHEDPEVKFNWYVDGVEVHNAKTKPREEQYNSTYRVVSVLTVLHQDWLNGKEYKCKVSNKALAAPIEKTISKAKGQPREPQVYTLPPSREEMTKNQVSLTCLVKGFYPSDIAVEWESNGQPENNYKTTPPVLDSDGSFFLYSKLTVDKSRWQQGNVFSCSVMHEALHNHYTQKSLSLSPGKGGGGSEVQLLESGGGLVQPGGSLRLSCAASGFMLSAEDVGWVRQAPGKGLEWVSAILDFGGSTYYADSVKGRFTISRDNSKNTLYLQMNSLRAEDTAVYYCARVVYHAGGGVTFDYWGQGTLVTVSS
# light: DIQMTQSPSSLSASVGDRVTITCRASENQYGYLAWYQQKPGKVPKLLIYNYKNLVEGVPSRFSGSGSGTDFTLTISSLQPEDVATYYCQHHLGTPYTFGQGTKVEIKRTVAAPSVFIFPPSDEQLKSGTASVVCLLNNFYPREAKVQWKVDNALQSGNSQESVTEQDSKDSTYSLSSTLTLSKADYEKHKVYACEVTHQGLSSPVTKSFNRGEC
# notes: Symmetric IgG-like; inert Fc; also called Format A
# B2: D-CD137×CEA (bispecific antibody, human IgG1, kappa)
# heavy: EVQLLESGGGLVQPGGSLRLSCAASGFMLSAEDVGWVRQAPGKGLEWVSAILDFGGSTYYADSVKGRFTISRDNSKNTLYLQMNSLRAEDTAVYYCARVVYHAGGGVTFDYWGQGTLVTVSSSGGGGSQVQLVQSGAEVKKPGASVKVSCKASGYIFTSYYLHWVRQAPGQGLEWIGYINPQTGKTSYAQKFQGRVTMTRDTSTSTVYMELSSLRSEDTAVYYCAREYGNYNYPLDYWGQGTLVTVSSASTKGPSVFPLAPSSKSTSGGTAALGCLVKDYFPEPVTVSWNSGALTSGVHTFPAVLQSSGLYSLSSVVTVPSSSLGTQTYICNVNHKPSNTKVDKKVEPKSCDKTHTCPPCPAPPAAGPSVFLFPPKPKDTLMISRTPEVTCVVVDVSHEDPEVKFNWYVDGVEVHNAKTKPREEQYNSTYRVVSVLTVLHQDWLNGKEYKCKVSNKALAAPIEKTISKAKGQPREPQVYTLPPSREEMTKNQVSLTCLVKGFYPSDIAVEWESNGQPENNYKTTPPVLDSDGSFFLYSKLTVDKSRWQQGNVFSCSVMHEALHNHYTQKSLSLSPGK
# light: B1 light
# notes: Symmetric IgG-like; also called Format D
# B3: Format A-BGA-5623 (bispecific antibody, human IgG1, kappa)
# heavy: B1 heavy with M482T, L483V, F508K, D516E, S529A, N538S, V553I, Y565T, W566R, L571Q
# light: B1 light
# notes: Module ratio 2:2, inert Fc
# B4: Format A - BGA-3386 (bispecific antibody, human IgG1, kappa)
# heavy: B1 heavy with M482T, L483V, F508K, D516E, S529A, N538S, V553I, Y565T
# light: B1 light
# notes: Light chain by the description of Format A
# B5: A-CD137×CEA-M8 (bispecific antibody, human IgG1, kappa)
# heavy: B1 heavy with F481R, M482T, S529A, N538S
# light: B1 light
# B6: Format A-BGA-7556 (bispecific antibody, human IgG1, kappa)
# heavy: B1 heavy with M482T, D516E, S529A, N538S, W566R, L571Q
# light: B1 light
# notes: Light chain by the description of Format A; also called BGA-7556 in Format A-CD137 × CEA
# B7: Format A - BGA-9442 (bispecific antibody, human IgG1, kappa)
# heavy: B1 heavy with M482T, L483I, F508S, D516E, S529A, N538S, V553Y, Y565L, W566R, L571Q
# light: B1 light
# notes: as for B4
# B8: CH3-BGA-4712-M3 (other)
# chain: GQPREPQVYTLPPSREEMTKNQVSLTCLVKGFYPSDIAVEWESNGQPENNYKTTPPVLDSDGSFFLYSKLTVDKSRWQQGNVFSCSVMHEALHNHYTQKSLSLSPGKGGGGSEVQLLESGGGLVQPGGSLRLSCAASGFTLSAEDVGWVRQAPGKGLEWVSAILDFGGSTYYAESVKGRFTISRDNAKNTLYLQMSSLRAEDTAVYYCARVVYHAGGGVTFDYWGQGTLVTVSS
# notes: Tested as bacterial supernatant; expressed as a dimer of CH3 fusion proteins from the phagemid; also called CH3 fusion of anti-huCD137 VH domain antibody
# B9: CH3-BGA-4712-M3 with W47F mutation in VH region (other)
# chain: B8 chain with W159F
# B10: CH3-BGA-4712-M3 with W47G mutation in VH region (other)
# chain: B8 chain with W159G
# notes: built from pieces so that position 47 counts on the VH
# B11: CH3-BGA-4712-M3 with W47Y mutation in VH region (other)
# chain: B8 chain with W159Y
# Assays:
# human CD137 ECD-mIgG2a [1] = biological target: human CD137 ECD-mIgG2a (human); assay: SPR, human CD137 ECD-mIgG2a
# human CEA on cells [2] = biological target: T1, human CEA on cells; assay: flow cytometry on CT26/CEA cells
# [3] = biological target: T2, full-length human CD137 (huCD137) (human, UniProt Q07011 24-255); assay: flow cytometry on Hut78/huCD137 cells
# T2 construct: On transduced Hut78 cells (Hut78/huCD137), transiently on HEK293 cells, or natively on PBMC/T cells; also called TNFRSF9; 4-1BB
# human CD137 ECD-mIgG2a [4] = biological target: human CD137 ECD-mIgG2a (human); assay: SPR, antibody captured on anti-human Fc surface; analyte taken as human CD137 ECD-mIgG2a
# [5] = biological target: T2, full-length human CD137 (huCD137); assay: cell-based or functional assay
# [6] = biological target: T2, full-length human CD137 (huCD137); assay: cell-based or functional assay; remark: listed apart in the source
# [7] = biological target: T2, full-length human CD137 (huCD137); assay: flow cytometry on Hut78/huCD137 cells; remark: listed apart in the source
# Description: (§1) Cell fluorescence was quantified using a flow cytometer (Guava easyCyte™ 8HT, Merck-Millipore, USA).
# human CD137 ECD-mIgG2a [8] = biological target: human CD137 ECD-mIgG2a (human); assay: SPR, multispecific antibody captured on anti-human IgG Fc chip, human CD137 ECD-mIgG2a flowed over
# Protocol: Briefly, anti-human IgG (Fc) antibody was immobilized on an activated CM5 biosensor chip (Cat.: BR100839, GE Life Sciences). Anti-huCD137 monoclonal antibodies or multispecific antibodies were flown through the chip surface and captured by anti-human IgG (Fc) antibody. […] The equilibrium dissociation constant (KD)) was calculated as the ratio koff/kₒₙ.
# human CD137 ECD-mIgG2a [9] = biological target: human CD137 ECD-mIgG2a (human); assay: SPR (BIAcore T-200): antibody captured on anti-human IgG (Fc) CM5 chip, human CD137 ECD-mIgG2a as analyte, 1:1 Langmuir fit
# Protocol: Characterization of anti-huCD137 VH domain antibodies were made by SPR assays using BIAcore™ T-200 (GE Life Sciences). Briefly, anti-human IgG (Fc) antibody was immobilized on an activated CM5 biosensor chip (Cat.: BR100839, GE Life Sciences). Anti-huCD137 domain antibodies were flowed over the chip surface and captured by anti-human IgG (Fc) antibody. […] The equilibrium dissociation constant (KD) was calculated as the ratio koff/kₒₙ.
# human CEA on cells [10] = biological target: T1, human CEA on cells; assay: flow cytometry on CT26/CEA cells; remark: listed apart in the source
# Description: as §1
# [11] = biological target: T2, full-length human CD137 (huCD137); assay: flow cytometry on Hut78/huCD137 cells; remark: listed apart in the source
# human CD137 ECD-mIgG2a [12] = biological target: human CD137 ECD-mIgG2a (human); assay: SPR, human CD137 ECD-mIgG2a; remark: listed apart in the source
# [13] = biological target: T2, full-length human CD137 (huCD137); assay: flow cytometry on Hut78/huCD137 cells; remark: listed apart in the source
# human CD137 ECD-mIgG2a [14] = biological target: human CD137 ECD-mIgG2a (human); assay: ELISA on coated human CD137-ECD-mIgG2a with supernatant containing the CH3 fusion [panel B]
# T2 sequence (Q07011 24-255 limits assumed): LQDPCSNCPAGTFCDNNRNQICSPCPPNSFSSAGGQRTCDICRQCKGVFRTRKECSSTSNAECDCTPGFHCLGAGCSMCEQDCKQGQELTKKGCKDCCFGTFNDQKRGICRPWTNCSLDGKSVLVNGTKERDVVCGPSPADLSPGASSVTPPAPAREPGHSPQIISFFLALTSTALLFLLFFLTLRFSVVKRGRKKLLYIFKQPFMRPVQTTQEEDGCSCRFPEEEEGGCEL
# human CD137 ECD-mIgG2a (human), sequence (chain, as listed by the source limits assumed): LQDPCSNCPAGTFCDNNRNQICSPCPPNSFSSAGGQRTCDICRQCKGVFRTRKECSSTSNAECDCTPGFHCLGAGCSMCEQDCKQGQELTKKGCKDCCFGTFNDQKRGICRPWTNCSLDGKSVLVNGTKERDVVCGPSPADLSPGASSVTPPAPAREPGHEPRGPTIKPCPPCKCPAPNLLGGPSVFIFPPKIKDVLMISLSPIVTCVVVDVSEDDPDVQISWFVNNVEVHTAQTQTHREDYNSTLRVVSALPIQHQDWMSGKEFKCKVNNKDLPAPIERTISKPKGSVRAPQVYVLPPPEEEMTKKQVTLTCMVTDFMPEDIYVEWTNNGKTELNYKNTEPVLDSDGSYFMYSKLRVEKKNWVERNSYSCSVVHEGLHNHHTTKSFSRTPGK
binder,measurement,setting,value
B1,Kd,human CD137 ECD-mIgG2a [1],360 nM
same,EC50,human CEA on cells [2],0.75 µg/mL
same,EC50,[3],0.57 µg/mL
same,Kd,human CD137 ECD-mIgG2a [4],360 nM
same,koff,human CD137 ECD-mIgG2a [4],0.00215 s⁻¹
same,kon,human CD137 ECD-mIgG2a [4],5970 M⁻¹ s⁻¹
B2,Kd,human CD137 ECD-mIgG2a [1],78 nM
same,EC50,human CEA on cells [2],3.78 µg/mL
same,EC50,[3],2.28 µg/mL
B3,"Functions EC50(ug/ml), PBMC based cytokine release assay",[5],0.341 µg/mL
same,"Functions Top, PBMC based cytokine release assay",[5],2510
same,"Functional assay EC50 (ug/ml), in vitro CD137 activation (PBMC cytokine release)",[6],0.31 µg/mL
same,EC50,[7],0.38 µg/mL
same,Kd,human CD137 ECD-mIgG2a [8],94.8 nM
same,Kd,human CD137 ECD-mIgG2a [9],111 nM
same,koff,human CD137 ECD-mIgG2a [9],0.0029 s⁻¹
same,kon,human CD137 ECD-mIgG2a [9],26100 M⁻¹ s⁻¹
B4,"Functions EC50(ug/ml), PBMC based cytokine release assay",[5],0.0768 µg/mL
same,"Functions Top, PBMC based cytokine release assay",[5],1950
same,EC50,human CEA on cells [10],0.21 µg/mL
same,EC50,[7],0.21 µg/mL
same,Kd,human CD137 ECD-mIgG2a [8],21.4 nM
same,Kd,human CD137 ECD-mIgG2a [9],21.4 nM
same,koff,human CD137 ECD-mIgG2a [9],0.000953 s⁻¹
same,kon,human CD137 ECD-mIgG2a [9],44600 M⁻¹ s⁻¹
B5,EC50 (read off the curve),[11],~0.5 µg/mL
same,Kd,human CD137 ECD-mIgG2a [4],184 nM
same,koff,human CD137 ECD-mIgG2a [4],0.0534 s⁻¹
same,kon,human CD137 ECD-mIgG2a [4],290000 M⁻¹ s⁻¹
B6,Kd,human CD137 ECD-mIgG2a [12],669 nM
same,EC50,[13],3.23 µg/mL
same,Kd,human CD137 ECD-mIgG2a [8],649 nM
B7,"Functions EC50(ug/ml), PBMC based cytokine release assay",[5],0.233 µg/mL
same,"Functions Top, PBMC based cytokine release assay",[5],1720
same,EC50,human CEA on cells [10],0.5 µg/mL
same,EC50,[7],0.5 µg/mL
same,Kd,human CD137 ECD-mIgG2a [8],164 nM
same,Kd,human CD137 ECD-mIgG2a [9],151 nM
same,koff,human CD137 ECD-mIgG2a [9],0.00604 s⁻¹
same,kon,human CD137 ECD-mIgG2a [9],39900 M⁻¹ s⁻¹
B8,binding result,human CD137 ECD-mIgG2a [14],binds
B9,binding result,human CD137 ECD-mIgG2a [14],no binding
B10,binding result,human CD137 ECD-mIgG2a [14],no binding
B11,binding result,human CD137 ECD-mIgG2a [14],no binding
